Results reported in patent publication US20160002357A1 (Pfizer, published 2016).
Positions count from the first letter of the chain named.

B1: 165 EK-DART (bispecific antibody)
chain 1: QSVLTQPPSVSAAPGQKVTISCSGSSSNIGNNYVSWYQQLPGTAPKLLIYDNNKRPSGIPDRFSGSKSGTSATLGITGLQAGDEADYYCGTWDSSLSAYVFGTGTKVTVLGGGSGGGGEVQLVESGGGLVQPGGSLRLSCAASGFTFNTYAMNWVRQAPGKGLEWVARIRSKYNNYATYYADSVKDRFTISRDDSKNSLYLQMNSLKTEDTAVYYCVRHGNFGNSYVSWFAYWGQGTLVTVSSGGCGGGKVAALKEKVAALKEKVAALKEKVAALKE
chain 2: QAVVTQEPSLTVSPGGTVTLTCRSSTGAVTTSNYANWVQQKPGQAPRGLIGGTNKRAPWTPARFSGSLLGGKAALTITGAQAEDEADYYCALWYSNLWVFGGGTKLTVLGGGGSGGGGEVQLVQSGAEVKKPGASVKVSCKASGYTFTSYGISWVRQAPGQGLEWMGWISAYNGNTNYAQKLQGRVTMTTDTSTSTAYMELRSLRSDDTAVYYCATIDTANAFDIWGQGTMVTVSSGGCGGGEVAALEKEVAALEKEVAALEKEVAALEK
B2: 154 EK-DART (bispecific antibody)
chain 1: B1 chain 1 with A81T, A98S
chain 2: B1 chain 2 with N221T
B3: 180 EK-DART (bispecific antibody)
chain 1: B1 chain 1 with L4V, A81T
chain 2: B1 chain 2
notes: also called P-CAD 180 EK-DART (CD3-2)
B4: 179 EK-DART (bispecific antibody)
chain 1: B1 chain 1 with S26R, N52S, A81T, A98S, Y99W, T103G, V107L
chain 2: B1 chain 2
B5: 178 EK-DART (bispecific antibody)
chain 1: B1 chain 1 with A81T, Y99V, T103G, V107L
chain 2: B1 chain 2
B6: 177 EK-DART (bispecific antibody)
chain 1: B1 chain 1 with A81T
chain 2: B1 chain 2
notes: the K-coil chain is assembled from parts with CD3-2 VH
B7: 33 EK-DART (P-CAD 33 x CD3-2) (bispecific antibody)
chain 1: B1 chain 1 with A81T
chain 2: B1 chain 2 with E119Q, V120M, T216L, D218G, T219S, A220G, N221V
B8: 34 EK-DART (P-CAD 34 x CD3-2) (bispecific antibody)
chain 1: B1 chain 1 with L4V, A81T, Y99W, T103G, V107L
chain 2: B1 chain 2 with N221S
B9: 20 EK-DART (P-CAD 20 x CD3-2) (bispecific antibody)
chain 1: AIQMTQSPSSLSASVGDRVTITCRASQSIGKYLNWYQQIPGKAPKLLIYTASTLQTGVPSRFSGSGSGTDFTLTIVSLQPEDFATYYCQQSFNTPRTFGQGTKVEIKGGGSGGGGEVQLVESGGGLVQPGGSLRLSCAASGFTFNTYAMNWVRQAPGKGLEWVARIRSKYNNYATYYADSVKDRFTISRDDSKNSLYLQMNSLKTEDTAVYYCVRHGNFGNSYVSWFAYWGQGTLVTVSSGGCGGGKVAALKEKVAALKEKVAALKEKVAALKE
chain 2: QAVVTQEPSLTVSPGGTVTLTCRSSTGAVTTSNYANWVQQKPGQAPRGLIGGTNKRAPWTPARFSGSLLGGKAALTITGAQAEDEADYYCALWYSNLWVFGGGTKLTVLGGGGSGGGGEVQLVQSGAEVKKPGASVKVSCKASGYTFTGYYMHWVRQAPGQGLEWMGRINPNSGGTNYAQKFQGRVTMTRDTSISTAYMELSRLRSDDTAVYYCAKGSGSGAFDIWGQGTMVTVSSGGCGGGEVAALEKEVAALEKEVAALEKEVAALEK
B10: 178 EK-DART (P-CAD 178 x CD3-2) (bispecific antibody)
chain 1: B1 chain 1 with A81T, Y99V, T103G, V107L
chain 2: B1 chain 2
B11: 180 EK-DART (P-CAD 180 x CD3-2) (bispecific antibody)
chain 1: B1 chain 1 with L4V, A81T
chain 2: B1 chain 2
B12: 154 EK-DART (P-CAD 154 x CD3-2) (bispecific antibody)
chain 1: B1 chain 1 with A81T, A98S
chain 2: B1 chain 2 with N221T
B13: 179 EK-DART (P-CAD 179 x CD3-2) (bispecific antibody)
chain 1: B1 chain 1 with S26R, N52S, A81T, A98S, Y99W, T103G, V107L
chain 2: B1 chain 2
B14: 177 EK-DART (P-CAD 177 x CD3-2) (bispecific antibody)
chain 1: B1 chain 1 with A81T
chain 2: B1 chain 2
B15: 165 EK-DART (P-CAD 165 x CD3-2) (bispecific antibody)
chain 1: B1 chain 1
chain 2: B1 chain 2
B16: 153 EK-DART (P-CAD 153 x CD3-2) (bispecific antibody)
chain 1: B1 chain 1 with A81T, A98G, Y99V, T103G, V107L
chain 2: B1 chain 2 with D224G
B17: anti-P-cadherin scFv 153 (parental clone 153), displayed on phage (scFv, V domains shown)
VH: EVQLVQSGAEVKKPGASVKVSCKASGYTFTSYGISWVRQAPGQGLEWMGWISAYNGNTNYAQKLQGRVTMTTDTSTSTAYMELRSLRSDDTAVYYCATIDTANAFGIWGQGTMVTVSS
VL: QSVLTQPPSVSAAPGQKVTISCSGSSSNIGNNYVSWYQQLPGTAPKLLIYDNNKRPSGIPDRFSGSKSGTSATLGITGLQTGDEADYYCGTWDSSLSGVVFGGGTKLTVL
notes: scFv expressed on the surface of phage
B18: anti-P-cadherin scFv 153 alanine-mutant L3.8-Ala (scFv, V domains shown)
VH: B17 VH
VL: B17 VL with S97A
notes: scFv on phage
B19: anti-P-cadherin scFv 153 alanine-mutant L3.9-Ala (scFv, V domains shown)
VH: B17 VH
VL: B17 VL with G98A
notes: scFv on phage
B20: anti-P-cadherin scFv 153 alanine-mutant L3.10-Ala (scFv, V domains shown)
VH: B17 VH
VL: B17 VL with V99A
notes: scFv on phage
B21: anti-P-cadherin scFv 153 alanine-mutant L3.11-Ala (scFv, V domains shown)
VH: B17 VH
VL: B17 VL with V100A
notes: scFv on phage
B22: anti-P-cadherin scFv 153 alanine-mutant L3.7-Ala (scFv, V domains shown)
VH: B17 VH
VL: B17 VL with L96A
notes: scFv on phage

biological target: T1, cynomolgus monkey P-cadherin ECD (cynomolgus monkey); test: SPR Biacore
T1 construct: extracellular domain; also called cyno P-cadherin ECD; Cyno P-cadherin
Protocol: Binding affinity of EK-DART proteins to P-cadherin and CD3 was analyzed by SPR using a BIACORE® 3000 biosensor (GE Healthcare). The antigens huCD3εδ and either human P-cadherin-Fc or human/cynomolgus monkey/murine P-cadherin-ECD were immobilized on the CM-5 sensor chip by amine coupling kit as recommended by the manufacturer. […] All EK-DART proteins in Tables 15 and 16 comprise CD3-2.
All EK-DART proteins in Table 17 comprise CD3-2.

Binder | Kd [pM] | koff [s⁻¹] | kon [M⁻¹ s⁻¹]
B1 | 370 | 0.000309 | 834000
B2 | 3930 | 0.0039 | 1.04e+06
B3 | 966 | 0.000744 | 771000
B4 | 4160 | 0.00458 | 1.11e+06
B5 | 1310 | 0.000216 | 167000
B6 | 483 | 0.000383 | 802000

biological target: T2, human P-cadherin, cell surface expressed (human, UniProt P22223 108-829); test: cell-based or functional assay
T2 sequence (P22223 108-829): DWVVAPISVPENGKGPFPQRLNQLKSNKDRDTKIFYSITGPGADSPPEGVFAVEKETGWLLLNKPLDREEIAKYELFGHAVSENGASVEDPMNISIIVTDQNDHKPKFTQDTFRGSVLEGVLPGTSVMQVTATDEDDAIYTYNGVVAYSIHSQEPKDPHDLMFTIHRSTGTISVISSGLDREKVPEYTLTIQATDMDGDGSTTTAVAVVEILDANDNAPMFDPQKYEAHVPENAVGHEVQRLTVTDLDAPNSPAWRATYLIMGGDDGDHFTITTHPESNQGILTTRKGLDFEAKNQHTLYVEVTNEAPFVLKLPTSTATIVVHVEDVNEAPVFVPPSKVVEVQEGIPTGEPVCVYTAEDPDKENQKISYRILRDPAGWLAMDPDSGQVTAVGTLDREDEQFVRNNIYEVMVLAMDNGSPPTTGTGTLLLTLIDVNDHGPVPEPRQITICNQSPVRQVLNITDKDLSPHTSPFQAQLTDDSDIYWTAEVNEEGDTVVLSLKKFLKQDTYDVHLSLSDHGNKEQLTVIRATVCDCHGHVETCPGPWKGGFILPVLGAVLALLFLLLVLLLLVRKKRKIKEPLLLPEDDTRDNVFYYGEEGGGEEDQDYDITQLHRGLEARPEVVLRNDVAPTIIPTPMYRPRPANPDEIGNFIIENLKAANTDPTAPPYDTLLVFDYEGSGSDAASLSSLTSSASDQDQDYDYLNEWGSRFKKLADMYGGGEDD

Binder | T cell directed cytotoxicity EC50, CHO-CDh3 (24 h), LDH release, human PBMC E:T 30:1 [pM] | T cell directed cytotoxicity EC50, H1650 (24 h), LDH release, human PBMC E:T 30:1 [pM] | T cell directed cytotoxicity EC50, H1650 (40 h), LDH release, human PBMC E:T 30:1 [pM]
B7 | 309 | 4100 | 1120
B8 | 736 | 5600 | 1600
B9 | 169000 | 36400 | 

biological target: T2, human P-cadherin, cell surface expressed; test: cell-based or functional assay; remark: another data set of the same source

Binder | T cell directed cytotoxicity EC50, H1650 LDH 24 hr 30:1 D41183 [pM] | T cell directed cytotoxicity EC50, HCT116 Luc 48 hr 10:1 D43905 [pM]
B10 | 0.8 | 1.8
B11 | 1.6 | 1.8
B12 | 10.7 | 16.6
B13 | 17.8 | 43.2
B14 | 1.1 | 0.7
B15 | 1.1 | 1.5
B16 | 0.8 | 0.5

biological target: T3, P-cadherin-ECD1-3-Fc protein (human P-cadherin-Fc) (human, UniProt P22223 108-440); test: phage scFv ELISA, coated P-cadherin-ECD1-3-Fc
T3 construct: Construct was expressed with signal peptide and pro-peptide (PACE co-transfected to process the propeptide); not shown: hinge and CH2 and CH3 domains of human IgG1
Protocol: (§1) P-cadherin-ECD1-3-Fc protein or negative control protein was coated overnight at 4° C. on 96-well Nunc Maxisorp® plates (Thermo Fisher Scientific, Madison, Conn.) at a concentration of 2 μg/mL in PBS+Ca²⁺ and Mg²⁺. Plates were washed three times using PBS+Ca²⁺ and Mg²⁺ and blocked for 1 hour at room temperature in 3% milk/PBS+Ca²⁺ and Mg²⁺. Phage samples prepared as described above were added to the blocked plates for 1 hour at room temperature. Plates were washed three times with PBS+Ca²⁺ and Mg²⁺ prior to the addition of secondary antibody (anti M13-HRP 1:2000, GE Healthcare, Piscataway, N.J.). Plates were incubated for a further 1 hour at room temperature and washed six times with PBS+Ca²⁺ and Mg²⁺. Signal was developed using TMB (SurModics, Eden Prairie, Minn.), the reaction stopped with H₂SO₄ and the absorbance read at 450 nm on an EnVision® plate reader (Perkin Elmer, Waltham, Mass.).

T3 sequence (P22223 108-440): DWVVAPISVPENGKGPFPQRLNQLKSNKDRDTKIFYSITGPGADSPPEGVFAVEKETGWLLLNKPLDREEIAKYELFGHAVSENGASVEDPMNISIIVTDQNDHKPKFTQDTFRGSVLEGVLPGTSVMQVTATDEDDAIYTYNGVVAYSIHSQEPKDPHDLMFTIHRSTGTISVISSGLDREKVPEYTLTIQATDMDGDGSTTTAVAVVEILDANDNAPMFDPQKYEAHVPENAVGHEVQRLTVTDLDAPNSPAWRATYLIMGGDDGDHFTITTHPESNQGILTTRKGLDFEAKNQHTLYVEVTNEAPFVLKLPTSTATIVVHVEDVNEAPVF

Binder | % of binding of Clone #153 to human P-cadherin-Fc [%] | Human P-cadherin-Fc binding (OD450) | Z Score
B17 | 100 | 1.32 | 0

biological target: T3, P-cadherin-ECD1-3-Fc protein (human …); test: phage scFv ELISA, coated P-cadherin-ECD1-3-Fc; remark: another data set of the same source
Protocol: ScFvs may be expressed on the surface of a phage particle. To prepare phage expressing scFv on their surface, 96-deep well plates containing 1 mL 2× TY media with 2% glucose/100 μg/mL ampicillin were inoculated with 0.5-1 μL from thawed glycerol stocks (one clone per well) using the QPix™2 Colony picker (Molecular Devices, Sunnyvale Calif.) and grown at 37° C. (900 rpm) for ˜4 hours. Next, 5 μL of a 1:29 dilution of helper phage (8.3×10¹³ pfu) was added and the plates and incubated for a further 30 minutes at 37° C. with no shaking then 1 hour at 300 rpm. Plates were centrifuged and the media was replaced with a kanamycin/non-glucose containing media (2× TY with 50 μg/mL kanamycin and 100 μg/mL ampicillin). Plates were grown overnight at 25° C. (900 rpm), and phage were harvested in the supernatant following centrifugation.
as §1

Binder | % of binding of Clone #153 to human P-cadherin-Fc [%] | Human P-cadherin-Fc binding (OD450) | Z Score
B17 | 100 | 1.32 | 0
B18 | 173 | 2.28 | 1.5
B19 | 166 | 2.19 | 1.4
B20 | 141 | 1.86 | 0.9
B21 | 104 | 1.38 | 0.1
B22 | 173 | 2.29 | 1.6
